Laboratory results taken from US20250074943A1 (Amgen, published 2025).
Bridge positions count the residues as written; N and C are the ends. Primed or numbered codes have the meaning given here. Ends that are not written are not given here. K(PEG4-DBCO-FEA) = Lys whose side chain carries PEG4-DBCO conjugated to fluoroethylazide (FEA); Ttds″ = trioxatridecan-succinamic acid linker

Experiments:
[1] = target: T1, recombinant DLL3 ectodomain (rhDLL3-Fc) (human, UniProt Q9NYJ7 27-492, biotinylated (NHS-LC-LC-biotin) in the BLI and SPR assays); assay: phage ELISA on rDLL3-Fc
T1 construct: also called rDLL3-Fc; recombinant human DLL3 (rDLL3); not shown: Fc part
T1 sequence: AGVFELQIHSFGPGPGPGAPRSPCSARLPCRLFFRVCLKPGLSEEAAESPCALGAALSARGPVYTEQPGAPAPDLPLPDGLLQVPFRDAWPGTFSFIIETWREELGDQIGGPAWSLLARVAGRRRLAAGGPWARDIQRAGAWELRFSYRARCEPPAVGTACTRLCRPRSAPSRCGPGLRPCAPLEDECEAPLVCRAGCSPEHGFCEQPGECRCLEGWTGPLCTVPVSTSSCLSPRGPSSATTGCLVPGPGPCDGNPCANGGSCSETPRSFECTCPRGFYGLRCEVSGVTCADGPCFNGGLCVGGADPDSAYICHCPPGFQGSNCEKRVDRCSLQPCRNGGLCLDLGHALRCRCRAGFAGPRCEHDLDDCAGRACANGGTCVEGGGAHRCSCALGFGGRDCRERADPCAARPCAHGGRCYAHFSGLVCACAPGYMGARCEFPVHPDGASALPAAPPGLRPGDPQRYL

[2] = target: T2, human DLL3 expressed on the surface of cells (human, UniProt Q9NYJ7 27-618); assay: phage cell ELISA/FACS on DLL3-expressing cells;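 further: phages incubated 1 h at room temperature with cells overexpressing human DLL3, read by flow cytometry fluorescence, then fixed-cell ELISA with anti-M13-HRP at A370 nm, parental cells alongside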
T2 construct: Stably transfected CHO or HEK293 cells; also called huDLL3; hDLL3
T2 sequence: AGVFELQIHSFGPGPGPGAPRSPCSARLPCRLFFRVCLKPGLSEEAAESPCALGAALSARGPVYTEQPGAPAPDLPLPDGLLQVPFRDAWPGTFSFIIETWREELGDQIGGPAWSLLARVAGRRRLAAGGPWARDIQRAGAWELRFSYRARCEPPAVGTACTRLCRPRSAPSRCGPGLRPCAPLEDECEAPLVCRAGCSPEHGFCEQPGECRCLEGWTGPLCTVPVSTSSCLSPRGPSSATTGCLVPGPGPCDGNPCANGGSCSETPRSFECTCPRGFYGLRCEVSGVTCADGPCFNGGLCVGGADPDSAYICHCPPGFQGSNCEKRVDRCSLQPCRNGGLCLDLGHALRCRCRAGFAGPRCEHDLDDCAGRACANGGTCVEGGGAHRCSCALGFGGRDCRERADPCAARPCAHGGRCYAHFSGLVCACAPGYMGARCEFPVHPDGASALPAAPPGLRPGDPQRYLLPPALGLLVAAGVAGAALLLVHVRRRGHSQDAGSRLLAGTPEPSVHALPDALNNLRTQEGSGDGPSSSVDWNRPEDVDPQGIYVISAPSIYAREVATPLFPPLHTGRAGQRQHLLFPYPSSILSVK
Experimental: The pools of phages were also screened for their binding to cells overexpressing human DLL3 on their surface. Cells were detached, counted and re-suspended at 1.8×10⁶ cell/ml in FACS buffer containing 2% FBS. Pre-blocked phages were then added to the cells and incubated for 1 hr at room temperature. […] Cells were then washed and re-suspended into FACS buffer. Fluorescence was acquired using a flow cytometer (FACS Canto/Becton Dickinson).
Phage clones with signal higher than four-fold above the background were further tested for their binding to DLL3 on the surface of cells expressing DLL3 by cell ELISA. Briefly, parental cells and cells overexpressing DLL3 were plated on 96 well plate the day before the assay. The cells were then fixed and washed before the addition of pre-blocked phages as previously described. The cells were then washed and anti-M13-HRP was added. The signal was measured using a Multiskan Ascent (Thermo) ELISA reader at A370 nm.

[3] = target: T1, recombinant DLL3 ectodomain (rhDLL3-Fc); assay: SPR off-rate, single point (300 nM peptide), biotinylated rhDLL3-Fc on SA chip
Experimental: The off-rate screening of the peptides was done using a Biacore T200 instrument (Cytiva, Sweden). […] Peptides were diluted at 300 nM in PBS-P+1× buffer (Cytiva, Sweden) supplemented with 1% DMSO and 0.1% BSA, then injected over the ligand for five minutes at 30 μl/min, finally dissociation allowed for 1 h. Sensorgrams were analyzed by Biacore T200 Evaluation Software 3.0 (Cytiva, Sweden): specific binding was obtained by subtracting unspecific binding to naked biosensors and a zero analyte concentration made of binding assay buffer (double referencing). Kinetic parameters of koff were measured using a global fitting according to 1:1 Langmuir binding isotherm equation.

[4] = target: T1, recombinant DLL3 ectodomain (rhDLL3-Fc); assay: SPR (Biacore), biotinylated rhDLL3-Fc on SA chip

B1: SEQ ID NO 65 (peptide)
chain: AETVEFWTCWTVYGKSSCWD
modifications: not fully specified (bridges); cysteine pairing not given here
notes: not shown: M13 pIII coat protein
[1]
  binding result: binds
[2]
  binding result: binds

B2: PepSP1581 (peptide)
peptide: Ac-AETVEFWWCNGNSENWTCTWGG-{Ttds″-K(PEG3)}
modifications: disulfide 9-18 (inferred); also: dimer linked via PEG4-DBCO-FEA
notes: also called dimeric FEA derivative of PepSP1487
[3]
  koff: 3.4e-05 s⁻¹

B3: SEQ ID NO 68 (peptide)
chain: AETVEFRYCTHTQTYVQCQD
modifications: not fully specified (bridges); cysteine pairing not given here
notes: as for B1
[1]
  binding result: binds
[2]
  binding result: binds

B4: PepSP1489 (peptide)
peptide: Ac-AETVEFWWCNGNSENWTCTWGG-{Ttds″-K(Ttds-Ttds-PEG3)}
modifications: disulfide 9-18 (inferred); also: dimer linked via PEG4-DBCO
notes: also called PspSP1489
[4]
  Kd: 3.3 nM
  koff: 0.00037 s⁻¹
  kon: 110000 M⁻¹ s⁻¹

B5: PepSP1462 (peptide)
peptide: Ac-AETVEFWWCNGNSENWTCTWGG-{Ttds-K(PEG4-DBCO)-NH2}
modifications: disulfide 9-18 (inferred)
notes: also called PspSP1462
[4]
  Kd: 6.3 nM
  koff: 0.0014 s⁻¹
  kon: 230000 M⁻¹ s⁻¹

B6: SEQ ID NO 73 (peptide)
chain: AETVEFWGCTGGAWEYTCWW
modifications: disulfide 9-18 (inferred); not fully specified (C-terminus)
notes: as for B1
[1]
  binding result: binds
[2]
  binding result: binds

B7: SEQ ID NO 59 (peptide)
chain: AETVEFYGCYGEQEQWTCLW
notes: as for B1
[1]
  binding result: binds
[2]
  binding result: binds

B8: SEQ ID NO 74 (peptide)
chain: AETVEFYGCSVTWGGYTCTW
modifications: disulfide 9-18 (inferred); not fully specified (C-terminus)
notes: as for B1
[1]
  binding result: binds
[2]
  binding result: binds

B9: SEQ ID NO 60 (peptide)
chain: AETVEFYGCQYYGWDYTCAW
notes: as for B1
[1]
  binding result: binds
[2]
  binding result: binds

B10: SEQ ID NO 67 (peptide)
chain: AETVEFYGCDLWKGWTVCGY
modifications: not fully specified (bridges); cysteine pairing not given here
notes: as for B1
[1]
  binding result: binds
[2]
  binding result: binds

B11: SEQ ID NO 76 (peptide)
chain: AETVEFCRAYSNWFYIC
modifications: disulfide 7-17 (inferred); not fully specified (C-terminus)
notes: as for B1
[1]
  binding result: binds
[2]
  binding result: binds

B12: SEQ ID NO 63 (peptide)
chain: AETVEFMRCYPWWYGPMCVR
modifications: not fully specified (bridges); cysteine pairing not given here
notes: as for B1
[1]
  binding result: binds
[2]
  binding result: binds

B13: SEQ ID NO 61 (peptide)
chain: AETVEFYGCWGNYNDYTCSW
notes: as for B1
[1]
  binding result: binds
[2]
  binding result: binds

B14: SEQ ID NO 75 (peptide)
chain: AETVEFYNCWYKMGWYVCWS
modifications: disulfide 9-18 (inferred); not fully specified (C-terminus)
notes: as for B1
[1]
  binding result: binds
[2]
  binding result: binds

B15: SEQ ID NO 64 (peptide)
chain: AETVEFWGCLGMGYDRTCWW
modifications: not fully specified (bridges); cysteine pairing not given here
notes: as for B1
[1]
  binding result: binds
[2]
  binding result: binds

B16: PepSP1538 (peptide)
peptide: Ac-AETVEFWWCNGNSENWTCTWGG-{Ttds″-K(PEG4-DBCO-FEA)-NH2}
modifications: disulfide 9-18 (inferred)
notes: also called monomeric Fluoroethylazide (FEA) derivative of PepSP1462
[3]
  koff: 0.0039 s⁻¹

B17: PepSP1488 (peptide)
peptide: Ac-AETVEFWWCNGNSENWTCTWGG-{Ttds″-K(PEG4-PEG3)}
modifications: disulfide 9-18 (inferred); also: dimer linked via PEG4-DBCO
notes: also called PspSP1488
[4]
  Kd: 2.6 nM
  koff: 0.00031 s⁻¹
  kon: 120000 M⁻¹ s⁻¹

B18: SEQ ID NO 70 (peptide)
chain: AETVEFWSCVVYGDNWTCSS
modifications: not fully specified (bridges); cysteine pairing not given here
notes: as for B1
[1]
  binding result: binds
[2]
  binding result: binds

B19: SEQ ID NO 66 (peptide)
chain: AETVEFYGCWWDAYGSTCTW
modifications: not fully specified (bridges); cysteine pairing not given here
notes: as for B1
[1]
  binding result: binds
[2]
  binding result: binds

B20: SEQ ID NO 69 (peptide)
chain: AETVEFWGCNLDWYGWTCWW
modifications: not fully specified (bridges); cysteine pairing not given here
notes: as for B1
[1]
  binding result: binds
[2]
  binding result: binds

B21: SEQ ID NO 72 (peptide)
chain: AETVEFWTCWETTEGYGCNW
modifications: not fully specified (bridges); cysteine pairing not given here
notes: as for B1
[1]
  binding result: binds
[2]
  binding result: binds

B22: SEQ ID NO 62 (peptide)
chain: AETVEFETCWYLYGREWCVG
modifications: not fully specified (bridges); cysteine pairing not given here
notes: as for B1
[1]
  binding result: binds
[2]
  binding result: binds

B23: SEQ ID NO 58 (peptide)
chain: AETVEFYGCSVNADGWTCSW
notes: as for B1
[1]
  binding result: binds
[2]
  binding result: binds

B24: PepSP1582 (peptide)
peptide: Ac-AETVEFWWCNGNSENWTCTWGG-{Ttds″-K(PEG4-PEG3)}
modifications: disulfide 9-18 (inferred); also: dimer linked via PEG4-DBCO-FEA
notes: also called dimeric FEA derivative of PepSP1488
[3]
  koff: 3.6e-05 s⁻¹

B25: SEQ ID NO 71 (peptide)
chain: AETVEFWSCQLGSGWWTCAW
modifications: not fully specified (bridges); cysteine pairing not given here
notes: as for B1
[1]
  binding result: binds
[2]
  binding result: binds

B26: PepSP1583 (peptide)
peptide: Ac-AETVEFWWCNGNSENWTCTWGG-{Ttds″-K(Ttds-Ttds-PEG3)}
modifications: disulfide 9-18 (inferred); not fully specified; printed as [Ac-AETVEFWWCNGNSENWTCTW-GG-Ttds-K(Ttds-Ttds-PEG3)]2-PEG4-DBCO-; also: dimer linked via PEG4-DBCO-FEA
notes: also called dimeric FEA derivative of PepSP1489
[3]
  koff: 3.2e-05 s⁻¹

B27: PepSP1487 (peptide)
peptide: Ac-AETVEFWWCNGNSENWTCTWGG-{Ttds″-K(PEG3)}
modifications: disulfide 9-18 (inferred); also: dimer of two copies, carries PEG4-DBCO
notes: also called PspSP1487
[4]
  Kd: 5.5 nM
  koff: 0.00042 s⁻¹
  kon: 76000 M⁻¹ s⁻¹
